Laboratory results from patent publication US20180265594A1.

How the values were obtained:
[1] = molecular target: αHGF S3gG (HGF-specific 3-piece Surrobody); assay: capture ELISA: anti-VpreB1 IgG (2460B04 IgG1) coated, S3gG diluted without serum; the concentration is that of S3gG
[2] = molecular target: αHGF S3gG (HGF-specific 3-piece Surrobody); assay: capture ELISA: anti-VpreB1 IgG (2460B04 IgG1) coated, S3gG diluted in 50% mouse serum; the concentration is that of S3gG
[3] = molecular target: αHGF S3gG (HGF-specific 3-piece Surrobody); assay: capture ELISA: anti-VpreB1 IgG (2460B04 IgG1) coated, S3gG diluted in 50% human or 50% monkey serum; the concentration is that of S3gG
[4] = molecular target: αHGF S2gG (HGF-specific 2-piece Surrobody); assay: capture ELISA: anti-VpreB1 IgG (2460B04 IgG1) coated, S2gG diluted without serum, detected with HRP-goat anti-E tag antibody; the concentration is that of S2gG
[5] = molecular target: αHGF S2gG (HGF-specific 2-piece Surrobody); assay: capture ELISA: anti-VpreB1 IgG (2460B04 IgG1) coated, S2gG diluted in 50% mouse serum, detected with HRP-goat anti-E tag antibody; the concentration is that of S2gG
[6] = molecular target: αHGF S2gG (HGF-specific 2-piece Surrobody); assay: capture ELISA: anti-VpreB1 IgG (2460B04 IgG1) coated, S2gG diluted in 50% human or 50% monkey serum, detected with HRP-goat anti-E tag antibody; the concentration is that of S2gG

- EC50 (read off the curve) [1]: 4 ng/mL
- EC50 (read off the curve) [2]: 20 ng/mL
- EC50 (read off the curve) [3]: 6 ng/mL
- EC50 (read off the curve) [4]: 4 ng/mL
- EC50 (read off the curve) [5]: 20 ng/mL
- EC50 (read off the curve) [6]: 6 ng/mL
B1: anti-human VpreB1 IgG1 (2460B04 IgG1) (antibody, V domains shown)
VH: EVQLVESGGGLVKPGGSLRLSCAASGFTFSNFEMNWVRQAPGKGLEWVSGISSNGRYINYADSVKGRFTISRDNAKNSLYLQMNSLRAEDTAVYYCARVVDFDQDYNGFDYWGQGTLVTVSS
VL: DIQLTQSPSFLSASVGDRVTITCRASQGISTDLNWYQQKPGKAPKLLIYAASNLESGVPSRFSGSGSGTEFTLTISSLQPEDFATYYCQQSYNWPYTFGGGTKVEIK
modifications: Used unlabeled, biotin-, DIG- or HRP-labeled; the letters do not carry the labels.
